Laboratory results as given in patent US20220267458A1.

Assays:
human GITR-His (human) [1] = molecular target: human GITR-His (human) (UniProt Q9Y5U5); experiment: ForteBio BLI, antibody on AHQ tip, human GITR-His 100 nM in solution, 1:1 model
[2] = molecular target: GITR protein overexpressed on Hela cells (Hela-GITR-NF-κB-Luc-Rep); experiment: cell-based or functional assay
human GITR-His (human) [3] = molecular target: human GITR-His (human) (UniProt Q9Y5U5); experiment: ForteBio BLI, antibody on AHQ tip, human GITR-His 100 nM in solution
human GITR-His (human) [4] = molecular target: human GITR-His (human) (UniProt Q9Y5U5); experiment: as above; remark: listed apart in the source
[5] = molecular target: human GITR overexpressed on CHO cells (CHO-GITR) (human) (UniProt Q9Y5U5); experiment: flow cytometry on CHO-GITR cells, PE anti-human Fc detection, MFI; direct binding titration, the table row is labelled IC50, nM is taken from the concentration axis
Chain of human GITR overexpressed on CHO cells (CHO-GITR) (human) (Q9Y5U5 26-241): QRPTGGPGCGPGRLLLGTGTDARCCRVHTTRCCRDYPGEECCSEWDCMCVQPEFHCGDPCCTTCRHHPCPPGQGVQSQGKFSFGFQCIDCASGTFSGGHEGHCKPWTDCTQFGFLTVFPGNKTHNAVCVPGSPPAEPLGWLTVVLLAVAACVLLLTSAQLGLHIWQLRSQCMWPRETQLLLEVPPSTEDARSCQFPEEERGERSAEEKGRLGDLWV

Chain of human GITR-His (human) (Q9Y5U5 other isoform, or with tags, fused parts or gaps): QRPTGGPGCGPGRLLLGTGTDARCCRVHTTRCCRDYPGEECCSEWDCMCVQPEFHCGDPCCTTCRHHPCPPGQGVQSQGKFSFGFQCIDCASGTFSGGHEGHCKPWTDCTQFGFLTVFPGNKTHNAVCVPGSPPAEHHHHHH

Kd (human GITR-His (human) [1]): 26.2 nM
koff (human GITR-His (human) [1]): 0.00484 s⁻¹
kon (human GITR-His (human) [1]): 185000 M⁻¹ s⁻¹
EC50 for the activation (NF-κB luciferase reporter) [2]: 2.1 nM
Kd (human GITR-His (human) [3]): 8.53 nM
koff (human GITR-His (human) [3]): 0.00292 s⁻¹
kon (human GITR-His (human) [3]): 342000 M⁻¹ s⁻¹
Kd (human GITR-His (human) [4]): 9.62 nM
koff (human GITR-His (human) [4]): 0.00206 s⁻¹
kon (human GITR-His (human) [4]): 214000 M⁻¹ s⁻¹
EC50 for binding [5]: 0.242 nM
Substance: TRX518 (antibody)
